± gives the uncertainty stated by the source.

Here are results for 60 sequences from the supplement of paper PMC7877785.

The series is described as follows: self-splicing fitness, log relative to wild type (ln ratio); higher = more splicing; Tetrahymena group I intron in knt gene, E. coli kanamycin selection, DiMSum; sequences stand for … in CUCUCU…GGAGGGAAAAGUUAUCAGGCAUGCACCUGGUAGCUAGUCUUUAAACCAAUAGAUUGCAUCGGUUUAAAAGGCAAGACCGUCAAAUUGCGGGAAAGGGGUCAACAGCCGUUCAGUACCAAGUCUCAGGGGAAACUUUGAGAUGGCCUUGCAAAGGGUAUGGUAAUAAGCUGACGGACAUGGUCCUAACCACGCAGCCAAGUCCUAAGUCAACAGAUCUUCUGUUGAUAUGGAUGCAGUUCACAGACUAAAUGUCGGUCGGGGAAGAUGUAUUCUUCUCAUAAGAUAUAGUCGGACCUCUCCUUAAUGGGAGCUAGCGGAUGAAGUGAUGCAACACUGGAGCCGCUGGGAACUAAUUUGUAUGCGAAAGUAUAUUGAUUAGUUUUGGAGUACUCGUGGUCG
In a few lines:
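Library with all eight P1ex-region intron nucleotides randomised, intron inside the knt kanamycin-resistance gene on pET-22b(+), in E. coli BL21(DE3). Cells grew overnight at 37°C or 30°C on LB agar with or without 25 μg/mL kanamycin (plus 100 μg/mL carbenicillin, 50 μM IPTG, 0.2% rhamnose), in six replicate transformations. Pooled colonies were amplicon-sequenced on Illumina HiSeq 2500. DiMSum fitness is the error-weighted combination of wild-type-normalised replicate fold changes, kanamycin versus none.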

For UGCGAGCAAUAUUACGAGUC, the “self-splicing fitness (ln)” value is -3.05 ± 0.21 (30 °C) and -2.27 ± 0.2 (37 °C).

With UCAAAGCAAUAUUACGAGCU, the “self-splicing fitness (ln)” value (30 °C) was -2.83 ± 0.23 and the “self-splicing fitness (ln)” value (37 °C) was -1.38 ± 0.22.

Turning to AUGCAGCAAUAUUACGAGAG, the “self-splicing fitness (ln)” value runs as follows: (30 °C) -4.15 ± 0.27; (37 °C) -1.16 ± 0.12.

Consider UACUAGCAAUAUUACGGCGC, for which the “self-splicing fitness (ln)” value is -1.6 ± 0.28 (30 °C) and -1.55 ± 0.31 (37 °C).

As to AAUUAGCAAUAUUACGAGCG, the “self-splicing fitness (ln)” value is, setting by setting: (30 °C) -1.1 ± 0.096; (37 °C) -0.749 ± 0.099.

For the sequence GUCCAGCAAUAUUACGGGUC, the “self-splicing fitness (ln)” value runs as follows: (30 °C) -1.73 ± 0.13; (37 °C) -1.7 ± 0.16.

Turning to GGUGAGCAAUAUUACGAGAU, the “self-splicing fitness (ln)” value (37 °C) is -2.44 ± 0.24.

For the sequence GCGCAGCAAUAUUACGGAUU, the “self-splicing fitness (ln)” value was -0.79 ± 0.039 (30 °C) and -0.328 ± 0.056 (37 °C).

Regarding UCUCAGCAAUAUUACGGUUA, the “self-splicing fitness (ln)” value runs as follows: (30 °C) -0.801 ± 0.083; (37 °C) -0.239 ± 0.091.

Regarding UUCCAGCAAUAUUACGUAUU, the “self-splicing fitness (ln)” value reads like this: (30 °C) -3.21 ± 0.18; (37 °C) -1.7 ± 0.19.

For UAGCAGCAAUAUUACGAGGA, the “self-splicing fitness (ln)” value reads like this: (30 °C) -3.39 ± 0.17; (37 °C) -2.06 ± 0.13.

Take UUCGAGCAAUAUUACGGACU: the “self-splicing fitness (ln)” value is -4.76 ± 0.38 (30 °C) and -2.63 ± 0.21 (37 °C).

For UACUAGCAAUAUUACGGCCU, the “self-splicing fitness (ln)” value was -1.25 ± 0.095 (30 °C) and -0.333 ± 0.11 (37 °C).

Take CUAGAGCAAUAUUACGAUCA: the “self-splicing fitness (ln)” value (30 °C) is -2.35 ± 0.45.

In the case of AAUGAGCAAUAUUACGGUUU, the “self-splicing fitness (ln)” value reads like this: (30 °C) -2.13 ± 0.097; (37 °C) -0.543 ± 0.11.

In the case of UGUGAGCAAUAUUACGGGGC, the “self-splicing fitness (ln)” value is -3.14 ± 0.39 (30 °C) and -2.25 ± 0.33 (37 °C).

For the sequence GGAAAGCAAUAUUACGUGUA, the “self-splicing fitness (ln)” value is -1.92 ± 0.096 (30 °C) and -1.8 ± 0.13 (37 °C).

For the sequence CCUAAGCAAUAUUACGUAGU, the “self-splicing fitness (ln)” value runs as follows: (30 °C) -1.3 ± 0.061; (37 °C) -0.474 ± 0.083.

With UACAAGCAAUAUUACGGUUC, the “self-splicing fitness (ln)” value is -3.49 ± 0.15 (30 °C) and -1.73 ± 0.13 (37 °C).

As to AAGCAGCAAUAUUACGGAAU, the “self-splicing fitness (ln)” value is -3.08 ± 0.13 (30 °C) and -1.66 ± 0.11 (37 °C).

As for UGGAAGCAAUAUUACGUCAG, the “self-splicing fitness (ln)” value was -0.777 ± 0.12 (30 °C) and -0.119 ± 0.16 (37 °C).

Regarding CGAUAGCAAUAUUACGCGGG, the “self-splicing fitness (ln)” value (30 °C) is -4.21 ± 0.31 and the “self-splicing fitness (ln)” value (37 °C) is -2.42 ± 0.24.

In the case of AUGGAGCAAUAUUACGGCCG, the “self-splicing fitness (ln)” value is, setting by setting: (30 °C) -1.27 ± 0.11; (37 °C) -0.481 ± 0.19.

Turning to CCCUAGCAAUAUUACGAGAU, the “self-splicing fitness (ln)” value by setting is: (30 °C) -3.88 ± 0.22; (37 °C) -2.91 ± 0.24.

As to UUCAAGCAAUAUUACGUUAG, the “self-splicing fitness (ln)” value was -3.23 ± 0.12 (30 °C) and -1.32 ± 0.089 (37 °C).

With CAGCAGCAAUAUUACGUGGG, the “self-splicing fitness (ln)” value (30 °C) is -3.53 ± 0.14 and the “self-splicing fitness (ln)” value (37 °C) was -2.31 ± 0.11.

As to CCCGAGCAAUAUUACGCGAC, the “self-splicing fitness (ln)” value (30 °C) is -1.96 ± 0.29 and the “self-splicing fitness (ln)” value (37 °C) was -1.68 ± 0.29.

For the sequence UGGUAGCAAUAUUACGUAGC, the “self-splicing fitness (ln)” value (30 °C) was -1.3 ± 0.2 and the “self-splicing fitness (ln)” value (37 °C) was -0.833 ± 0.27.

Take GGAAAGCAAUAUUACGGACG: the “self-splicing fitness (ln)” value by setting is: (30 °C) -0.879 ± 0.087; (37 °C) 0.281 ± 0.1.

On to GGGUAGCAAUAUUACGUAAG, for which the “self-splicing fitness (ln)” value (30 °C) is -1.46 ± 0.14 and the “self-splicing fitness (ln)” value (37 °C) is -0.429 ± 0.15.

Regarding UGCGAGCAAUAUUACGCGCG, the “self-splicing fitness (ln)” value was -2.71 ± 0.2 (30 °C) and -2.72 ± 0.3 (37 °C).

In the case of AAGGAGCAAUAUUACGUACC, the “self-splicing fitness (ln)” value was -3.01 ± 0.33 (30 °C) and -3.19 ± 0.41 (37 °C).

For the sequence GUAAAGCAAUAUUACGGACU, the “self-splicing fitness (ln)” value was -0.753 ± 0.061 (30 °C) and -0.471 ± 0.082 (37 °C).

Regarding GCACAGCAAUAUUACGUACU, the “self-splicing fitness (ln)” value reads like this: (30 °C) -1.2 ± 0.069; (37 °C) -1.2 ± 0.094.

Take CUAUAGCAAUAUUACGUGUC: the “self-splicing fitness (ln)” value (30 °C) was -4.02 ± 0.24 and the “self-splicing fitness (ln)” value (37 °C) is -3.09 ± 0.27.

Turning to AUGCAGCAAUAUUACGAUCA, the “self-splicing fitness (ln)” value by setting is: (30 °C) -0.908 ± 0.14; (37 °C) -0.711 ± 0.14.

As for AAGCAGCAAUAUUACGAGGC, the “self-splicing fitness (ln)” value (30 °C) is -1.38 ± 0.13 and the “self-splicing fitness (ln)” value (37 °C) is -2.17 ± 0.22.

Turning to UCAAAGCAAUAUUACGCAUG, the “self-splicing fitness (ln)” value is, setting by setting: (30 °C) -1.44 ± 0.12; (37 °C) -1.27 ± 0.14.

For the sequence GAAUAGCAAUAUUACGUCUA, the “self-splicing fitness (ln)” value was -1.12 ± 0.12 (30 °C) and -0.42 ± 0.13 (37 °C).

With GAAUAGCAAUAUUACGGCCC, the “self-splicing fitness (ln)” value by setting is: (30 °C) -0.303 ± 0.14; (37 °C) 0.174 ± 0.21.

Take CCACAGCAAUAUUACGGACU: the “self-splicing fitness (ln)” value runs as follows: (30 °C) -3.9 ± 0.15; (37 °C) -2.95 ± 0.14.

GCACAGCAAUAUUACGAUGA: the “self-splicing fitness (ln)” value was -0.231 ± 0.076 (30 °C) and -0.14 ± 0.078 (37 °C).

GUUCAGCAAUAUUACGUCAG: the “self-splicing fitness (ln)” value was -3.88 ± 0.23 (30 °C) and -3.07 ± 0.24 (37 °C).

With CCUUAGCAAUAUUACGCUUG, the “self-splicing fitness (ln)” value runs as follows: (30 °C) -3.86 ± 0.3; (37 °C) -3.5 ± 0.37.

UCACAGCAAUAUUACGAUAC: the “self-splicing fitness (ln)” value is -3.87 ± 0.26 (30 °C) and -2.75 ± 0.35 (37 °C).

With CGUAAGCAAUAUUACGCCUU, the “self-splicing fitness (ln)” value is -2.51 ± 0.23 (30 °C) and -2.05 ± 0.31 (37 °C).

Take AUCCAGCAAUAUUACGUCGC: the “self-splicing fitness (ln)” value by setting is: (30 °C) -3.25 ± 0.24; (37 °C) -2.08 ± 0.19.

Regarding CGUAAGCAAUAUUACGCUGA, the “self-splicing fitness (ln)” value (30 °C) was -3.48 ± 0.42 and the “self-splicing fitness (ln)” value (37 °C) was -1.42 ± 0.18.

Regarding CGGGAGCAAUAUUACGUGAG, the “self-splicing fitness (ln)” value runs as follows: (30 °C) -1.03 ± 0.11; (37 °C) -0.865 ± 0.11.

In the case of CUUGAGCAAUAUUACGAGGG, the “self-splicing fitness (ln)” value (30 °C) is -3.25 ± 0.3 and the “self-splicing fitness (ln)” value (37 °C) is -2.37 ± 0.42.

As for GCGUAGCAAUAUUACGGUAG, the “self-splicing fitness (ln)” value by setting is: (30 °C) -2.9 ± 0.28; (37 °C) -2.03 ± 0.23.

As to GGUGAGCAAUAUUACGAGGA, the “self-splicing fitness (ln)” value by setting is: (30 °C) -1.95 ± 0.39; (37 °C) -2.02 ± 0.33.

Take AACGAGCAAUAUUACGACUA: the “self-splicing fitness (ln)” value runs as follows: (30 °C) -1.81 ± 0.21; (37 °C) -0.213 ± 0.18.

As for GCGCAGCAAUAUUACGGUUU, the “self-splicing fitness (ln)” value was -0.323 ± 0.048 (30 °C) and -0.167 ± 0.057 (37 °C).

On to CAAAAGCAAUAUUACGGCAA, for which the “self-splicing fitness (ln)” value (30 °C) is -1.96 ± 0.17 and the “self-splicing fitness (ln)” value (37 °C) was -0.93 ± 0.14.

Consider CGUUAGCAAUAUUACGUGGA, for which the “self-splicing fitness (ln)” value (30 °C) is -2.98 ± 0.18 and the “self-splicing fitness (ln)” value (37 °C) is -1.68 ± 0.13.

UGAUAGCAAUAUUACGAUCC: the “self-splicing fitness (ln)” value runs as follows: (30 °C) -0.554 ± 0.12; (37 °C) 0.433 ± 0.15.

For UCGCAGCAAUAUUACGCGUA, the “self-splicing fitness (ln)” value is -1.83 ± 0.12 (30 °C) and -0.123 ± 0.11 (37 °C).

GUUAAGCAAUAUUACGGCGA: the “self-splicing fitness (ln)” value (30 °C) was -0.403 ± 0.096 and the “self-splicing fitness (ln)” value (37 °C) was -0.122 ± 0.11.

Take CAUGAGCAAUAUUACGCAUG: the “self-splicing fitness (ln)” value (30 °C) is -3.01 ± 0.2 and the “self-splicing fitness (ln)” value (37 °C) was -1.18 ± 0.25.
